This is an account of results in patent publication US20240109955A1.

Common to all, as to assay: cell-based or functional assay
Test [1] deals with SARS-CoV-2 Omicron variant BQ.1 spike protein (SARS-CoV-2).
Test [2] concerns the target SARS-CoV-2 Omicron variant XBB spike protein (SARS-CoV-2).
Test [3] addresses SARS-CoV-2 Omicron variant BQ.1.1 spike protein (SARS-CoV-2).

B1: MX1027 (bispecific antibody)
chain 1: EIVMTQSPAILSVSPGERATLSCRASQSVAINLAWYQQKPGQAPRLLIYAASSRATGIPGRFSGSGSETNFTLTISSLQSGDFAVYYCQQYITWPPSYTFGQGTKLEIKGGSSGQTVVTQEPSFSVSPGGTVTLTCGLSSGSVSTAYFPSWYQQTPGQAPRTLIYGTNTRSSGVPDRFSGSILGNKAALTITGAQADDESDYYCVLYMGRGIVVFGGGTKLTVLGGGGSGGSGSGGGGSASGSGQVQLVESGGGVVQPGRSLRLSCAASGFTLSSYGMHWVRQAPGKGLEWVAVISYDGSNKYYVDSVKGRFTISRDNSKNTLYLQMNSLRAEDTAVYYCRWAYWELLPDYYYGMDVWGQGTTVTVSSGGSSGEVQLVESGGALIQPGGSLRLSCAASGIIVSANYMSWVRQAPGKGLEWVSVIYSGGSTFYADSVKGRFTISRDNSKNTLYLEMNSLRAEDTAVYYCARDAPILGVSDWGQGTLVTVSSASGGSGDKTHTCPPCPAPELLGGPSVFLFPPKPKDTLMISRTPEVTCVVVDVSHEDPEVKFNWYVDGVEVHNAKTKPREEQYNSYVVSVLTVLHQDWLNGKEYKCKVSNKALPAPIEKTISKAKGQPREPQVYTLPPCRDELTKNQVSLWCLVKGFYPSDIAVEWESNGQPENNYKTTPPVLDSDGSFFKKLTVDKSRWQQGNVFSCSVLHEALHSHYTQKSLSLSPG
chain 2: QTVVTQEPSFSVSPGGTVTLTCGLSSGSVSTAYFPSWYQQTPGQAPRTLIYGTNTRSSGVPDRFSGSILGNKAALTITGAQADDESDYYCVLYMGRGIVVFGGGTKLTVLGGSSGEIVMTQSPAILSVSPGERATLSCRASQSVAINLAWYQQKPGQAPRLLIYAASSRATGIPGRFSGSGSETNFTLTISSLQSGDFAVYYCQQYITWPPSYTFGQGTKLEIKGGGGSGGSGSGGGGSASGSGEVQLVESGGALIQPGGSLRLSCAASGIIVSANYMSWVRQAPGKGLEWVSVIYSGGSTFYADSVKGRFTISRDNSKNTLYLEMNSLRAEDTAVYYCARDAPILGVSDWGQGTLVTVSSGGSSGQVQLVESGGGVVQPGRSLRLSCAASGFTLSSYGMHWVRQAPGKGLEWVAVISYDGSNKYYVDSVKGRFTISRDNSKNTLYLQMNSLRAEDTAVYYCRWAYWELLPDYYYGMDVWGQGTTVTVSSASGGSGDKTHTCPPCPAPELLGGPSVFLFPPKPKDTLMISRTPEVTCVVVDVSHEDPEVKFNWYVDGVEVHNAKTKPREEQYNSYVVSVLTVLHQDWLNGKEYKCKVSNKALPAPIEKTISKAKGQPREPQVCTLPPSRDELTKNQVSLSCAVKGFYPSDIAVEWESNGQPENNYKTTPPVLDSDGSFFLVSKLTVDKSRWQQGNVFSCSVLHEALHSHYTQKSLSLSPG
For B1, the IC50, pseudovirus neutralization in test [1] was 0.0216 µg/mL; in test [2], 0.0129 µg/mL; in test [3] it was 0.0135 µg/mL. Also, the figures for the IC80, pseudovirus neutralization in test [1], in test [2] and in test [3] were 0.0649 µg/mL, 0.0207 µg/mL and 0.0232 µg/mL, respectively.

B2: A46 + B8 (protein)
VH 1: QVQLVESGGGVVQPGRSLRLSCAASGFTLSSYGMHWVRQAPGKGLEWVAVISYDGSNKYYVDSVKGRFTISRDNSKNTLYLQMNSLRAEDTAVYYCRWAYWELLPDYYYGMDVWGQGTTVTVSS
VL 1: QTVVTQEPSFSVSPGGTVTLTCGLSSGSVSTAYFPSWYQQTPGQAPRTLIYGTNTRSSGVPDRFSGSILGNKAALTITGAQADDESDYYCVLYMGRGIVVFGGGTKLTVL
VH 2: EVQLVESGGALIQPGGSLRLSCAASGIIVSANYMSWVRQAPGKGLEWVSVIYSGGSTFYADSVKGRFTISRDNSKNTLYLEMNSLRAEDTAVYYCARDAPILGVSDWGQGTLVTVSS
VL 2: EIVMTQSPAILSVSPGERATLSCRASQSVAINLAWYQQKPGQAPRLLIYAASSRATGIPGRFSGSGSETNFTLTISSLQSGDFAVYYCQQYITWPPSYTFGQGTKLEIK
In the case of B2, the IC50, pseudovirus neutralization in test [1] worked out at 0.0186 µg/mL; in test [2], 0.0186 µg/mL; in test [3] it was 0.0145 µg/mL. Further, the IC80, pseudovirus neutralization in test [1] turned out to be 0.0493 µg/mL; in test [2], 0.0481 µg/mL; in test [3] it was 0.0273 µg/mL.
